Data on one substance can be found in patent US6673896.

In the experiment the target is T4 glycoprotein (human T cell surface protein T4) (human) (UniProt P01730). The experiment can be described thus: cell-based or functional assay.

In the case of OKT4A monoclonal antibody, the VSV PSEUDOTYPE TITER, VSV(AIDS) +αT4A, CEM(T4+) cells amounted to 200 PFU/ml; the VSV PSEUDOTYPE TITER, VSV(AIDS) +αT4A, HSB2-T4+ cells was 300 PFU/ml; the VSV PSEUDOTYPE TITER, VSV(AIDS) +αT4A, HeLa-T4+ cells was found to be 200 PFU/ml; the VSV PSEUDOTYPE TITER, VSV(AIDS) +αT4A, Raji-T4+ cells was 150 PFU/ml.
